Experimental data as given in publication doi:10.1101/2024.10.02.616340 (bioRxiv, 2024).

Experiments:
[1] = molecular target: T1, yeast Mcm4 (subunit of CMG) (budding yeast, UniProt P30665 1-933); assay: cryo-EM structure
T1 sequence: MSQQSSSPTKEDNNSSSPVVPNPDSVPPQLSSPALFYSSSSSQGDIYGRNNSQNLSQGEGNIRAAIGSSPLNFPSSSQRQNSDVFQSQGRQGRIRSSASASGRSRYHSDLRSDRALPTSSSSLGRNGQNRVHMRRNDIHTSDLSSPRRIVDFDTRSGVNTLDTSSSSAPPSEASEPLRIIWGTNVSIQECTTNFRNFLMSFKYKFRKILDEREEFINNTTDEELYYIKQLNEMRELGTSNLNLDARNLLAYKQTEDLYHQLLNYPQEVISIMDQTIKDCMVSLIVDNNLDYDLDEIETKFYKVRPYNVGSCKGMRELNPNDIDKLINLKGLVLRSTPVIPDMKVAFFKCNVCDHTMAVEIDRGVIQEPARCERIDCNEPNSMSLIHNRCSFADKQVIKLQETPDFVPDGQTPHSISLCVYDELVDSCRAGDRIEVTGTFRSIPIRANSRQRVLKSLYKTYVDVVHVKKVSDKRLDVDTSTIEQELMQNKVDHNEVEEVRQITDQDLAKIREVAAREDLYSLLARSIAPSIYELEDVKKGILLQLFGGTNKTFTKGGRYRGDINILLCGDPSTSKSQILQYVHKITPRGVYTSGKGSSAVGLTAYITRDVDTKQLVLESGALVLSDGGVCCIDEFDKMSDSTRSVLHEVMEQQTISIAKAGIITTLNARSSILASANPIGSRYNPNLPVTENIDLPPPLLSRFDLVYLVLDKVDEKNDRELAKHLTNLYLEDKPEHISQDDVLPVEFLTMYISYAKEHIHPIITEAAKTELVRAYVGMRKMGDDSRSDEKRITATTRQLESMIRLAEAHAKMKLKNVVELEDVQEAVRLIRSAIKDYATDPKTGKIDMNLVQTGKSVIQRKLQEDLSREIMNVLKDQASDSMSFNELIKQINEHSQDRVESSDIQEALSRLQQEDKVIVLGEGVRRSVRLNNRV

[2] = molecular target: yeast Mcm3 (subunit of CMG) (budding yeast, UniProt P24279 1-971); assay: cryo-EM structure
Chain of yeast Mcm3 (subunit of CMG) (P24279 whole entry): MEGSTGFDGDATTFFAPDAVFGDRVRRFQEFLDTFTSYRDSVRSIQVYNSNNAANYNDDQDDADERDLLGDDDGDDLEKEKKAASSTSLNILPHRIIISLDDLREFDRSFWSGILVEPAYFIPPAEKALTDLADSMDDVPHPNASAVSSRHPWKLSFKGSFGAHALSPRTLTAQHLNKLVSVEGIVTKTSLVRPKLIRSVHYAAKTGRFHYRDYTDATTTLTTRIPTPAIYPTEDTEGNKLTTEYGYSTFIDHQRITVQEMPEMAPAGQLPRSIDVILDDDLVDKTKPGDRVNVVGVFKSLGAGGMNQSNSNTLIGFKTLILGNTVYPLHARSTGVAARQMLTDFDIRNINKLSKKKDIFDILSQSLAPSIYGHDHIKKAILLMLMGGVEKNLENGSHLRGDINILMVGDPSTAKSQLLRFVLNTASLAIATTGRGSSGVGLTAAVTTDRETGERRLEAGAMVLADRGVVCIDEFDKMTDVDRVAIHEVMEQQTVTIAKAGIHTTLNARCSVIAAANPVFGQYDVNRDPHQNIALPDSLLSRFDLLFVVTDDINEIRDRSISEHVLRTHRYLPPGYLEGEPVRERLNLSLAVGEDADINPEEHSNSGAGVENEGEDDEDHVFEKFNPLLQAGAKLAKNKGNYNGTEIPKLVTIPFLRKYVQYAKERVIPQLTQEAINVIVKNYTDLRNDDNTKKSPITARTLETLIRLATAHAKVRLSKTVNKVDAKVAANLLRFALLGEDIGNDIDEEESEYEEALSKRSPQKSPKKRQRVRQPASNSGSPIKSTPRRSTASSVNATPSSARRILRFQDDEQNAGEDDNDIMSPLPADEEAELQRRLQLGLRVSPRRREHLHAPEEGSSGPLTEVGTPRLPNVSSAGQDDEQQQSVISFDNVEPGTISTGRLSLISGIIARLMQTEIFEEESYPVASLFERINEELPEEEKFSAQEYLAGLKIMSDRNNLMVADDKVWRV

binding result [1]: binds
binding result [2]: binds
B1: yeast Mcm7 (subunit of CMG) (natural protein)
chain: MSAALPSIQLPVDYNNLFNEITDFLVTFKQDTLSSDATRNENEDENLDAENIEQHLLEKGPKYMAMLQKVANRELNSVIIDLDDILQYQNEKFLQGTQADDLVSAIQQNANHFTELFCRAIDNNMPLPTKEIDYKDDVLDVILNQRRLRNERMLSDRTNEIRSENLMDTTMDPPSSMNDALREVVEDETELFPPNLTRRYFLYFKPLSQNCARRYRKKAISSKPLSVRQIKGDFLGQLITVRGIITRVSDVKPAVEVIAYTCDQCGYEVFQEVNSRTFTPLSECTSEECSQNQTKGQLFMSTRASKFSAFQECKIQELSQQVPVGHIPRSLNIHVNGTLVRSLSPGDIVDVTGIFLPAPYTGFKALKAGLLTETYLEAQFVRQHKKKFASFSLTSDVEERVMELITSGDVYNRLAKSIAPEIYGNLDVKKALLLLLVGGVDKRVGDGMKIRGDINVCLMGDPGVAKSQLLKAICKISPRGVYTTGKGSSGVGLTAAVMKDPVTDEMILEGGALVLADNGICCIDEFDKMDESDRTAIHEVMEQQTISISKAGINTTLNARTSILAAANPLYGRYNPRLSPLDNINLPAALLSRFDILFLMLDIPSRDDDEKLAEHVTYVHMHNKQPDLDFTPVEPSKMREYIAYAKTKRPVMSEAVNDYVVQAYIRLRQDSKREMDSKFSFGQATPRTLLGIIRLSQALAKLRLADMVDIDDVEEALRLVRVSKESLYQETNKSKEDESPTTKIFTIIKKMLQETGKNTLSYENIVKTVRLRGFTMLQLSNCIQEYSYLNVWHLINEGNTLKFVDDGTMDTDQEDSLVSTPKLAPQTTASANVSAQDSDIDLQDA
